The target in assay [1] is wild-type CotE protein from Bacillus cereus (Bacillus cereus). Kind of assay: SEC; Superdex 200 Increase 10/300 GL, 20 mM Tris-HCl pH 8.0, no CaCl2; CotE 5 mg/mL; apparent molecular weight from a calibration curve. (In general: In gel filtration, larger molecules generally elute earlier.)
Assay [2] has the same target. Kind of assay: SEC; Superdex 200 Increase 10/300 GL, 20 mM Tris-HCl pH 8.0 with 5 mM CaCl2; CotE 5 mg/mL; apparent molecular weight from a calibration curve.
Assay [3] shares this target. Kind of assay: cryo-EM structure; CotE 2 mg/mL with 5 mM CaCl2 (meshwork); C3 map of the trimer unit at 6.55 Å and C2 map of two joined trimers at 6.86 Å; AlphaFold2 trimer models fitted.
Assay [4] deals with CotE (outer coat protein CotE). The settings on record: PBS pH 7.2, 25 °C; 100 µM protein in cell, 1 mM DPA in syringe; C-terminal His-tagged trimeric mutant.
For assay [5], the target named is W65E variant CotE protein, C-terminal His-tagged (Bacillus cereus). Kind of assay: SEC-MALS; Superdex 75 Increase 10/300 GL, 2 mg/mL protein, 20 mM Tris pH 8.0.

Bounds are passed on as bounds.

In general, stoichiometry N refers to the number of molecules, sites or subunits per partner or assembly. On to “wild-type CotE protein from Bacillus cereus (natural protein)”, for which the stoichiometry N in assay [1] was 12; in assay [2], > 100; in assay [3], 3.
Broadly, the Kd is the concentration at which binding is half-saturated. Regarding `O=C(O)c1cccc(C(=O)O)n1` [DPA, dipicolinic acid], the Kd in assay [4] is 6.3 µM.
Consider “W65E variant CotE protein, C-terminal His-tagged (natural protein)”, for which the stoichiometry N in assay [5] is 3.

Source of the values: publication PMC11980541, “3D meshwork architecture of the outer coat protein CotE: implications for bacterial endospore sporulation and germination” (mBio, 2025).
